Consider 1 sequence from publication PMC12566272.

The target of this series is T1, FucR (Cj0480c), IclR-type regulator (Campylobacter jejuni NCTC 11168) (UniProt Q0PB33).
T1 sequence: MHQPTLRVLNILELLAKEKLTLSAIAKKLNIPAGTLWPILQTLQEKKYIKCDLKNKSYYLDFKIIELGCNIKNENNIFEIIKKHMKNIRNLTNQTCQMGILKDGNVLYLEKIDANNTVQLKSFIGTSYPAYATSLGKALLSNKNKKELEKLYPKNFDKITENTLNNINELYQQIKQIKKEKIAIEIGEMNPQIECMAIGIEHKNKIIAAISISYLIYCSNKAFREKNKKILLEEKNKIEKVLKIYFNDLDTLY
Put plainly: EMSA. The settings on record: 50 mM Tris-HCl, 150 mM KCl, 10 mM MgCl2, pH 7.4, room temperature, 1 h; 4-20% gradient PAGE. In general terms: In EMSA bound probe runs differently from free probe, usually more slowly.

As for “GCTGATGCATATTGTCTTTATCCTTATTTTATTTTTATAAATTTTAGCATATTTTTTACTTTTAGTAACATAAAATCATAATTTTTATTATTTATTAATTTTAATATTTTTTTTGTAAAAATTGGCAGTTAATAAGAATAAAATACGAATTTTTACCAAGTTAACAGCTTGATTTTTTTACAAATATTTTGTTATATTTTTTGTATATAAATATATTTTTGTATATACGAAAGGAAAAAAATGGGAATTTTAAAAGGAACTTTACCGGCTTTACTTAC (double strand) [PR2 (fucose operon) promoter fragment]”, the binding result is given as “binds”.
